Patent publication US20250051407A1, “De novo designed sequence-specific DNA binding proteins” (University of Washington, priority 2023, published 2025)

Columns and labels:
13 unique dsDNA targets = assay: All-by-all yeast surface display screen of DBP design hits; type: binding
How it was run: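 EBY100 yeast displaying designs were induced 16–24 h at 30°C, then labelled with biotinylated dsDNA either with avidity (SAPE premixed at one-quarter of target concentration) or without (target, then SAPE/FITC). Competition ran without avidity at 1 μM biotinylated duplex plus 8 μM unlabelled competitor. Flow cytometry read-out is the SAPE/FITC ratio over gated expressing cells.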

[1] = test system: biotinylated target dsDNA with non-biotinylated competitor dsDNA; assay: Yeast display competition assay with base-substituted competitor dsDNA; type: binding; details: all possible base mutations at each position of the competitor oligo
[2] = test system: synthetic promoter containing the designed DBP binding sites controlling YFP; assay: Transcriptional repression assay (NOT gate, YFP) in E. coli; type: cell-based, Escherichia coli; details: IPTG induction (1 mM), flow cytometry
From the text: We next tested the ability of the designed DBPs to function in cells to regulate transcription. We constructed candidate NOT gates (38) to assay transcriptional repression in Escherichia coli, where the input is a designed DBP under control of the IPTG-inducible PTac promoter and the output is yellow fluorescent protein (YFP) expression driven by a promoter incorporating each DBP's DNA binding site. […] To increase avidity and bulk, we fused the DBPs to the homodimerization domain of the TetR protein (39), using RFdiffusion (40) and ProteinMPNN sequence design to generate rigid linkers that orient the DBP domain of each dimer unit on a DNA target containing two palindromic binding sites. For DBPs 48, 69, and 57, we selected 96 TetR fusions for experimental characterization in the NOT gate circuit. Upon initial screening, we observed modest repression for several designs and selected two for further validation (one incorporating DBP48, the other DBP57) (FIG. 8). […]

B1: DBP48: designed DNA-binding protein, SEQ ID NO: 22, DNA target D (protein)
chain: MTPEEIAEAKRIGKEVKERRKELGLTQRELAEKLGVSRSTVSDIENGRRLPSEELLKKIKEILGV
Number of the 13 tested DNA target sequences preferentially bound (13 unique dsDNA targets; 1 μM dsDNA with avidity, including designed target sequence): less than 3
Binding specificity versus design models (13 unique dsDNA targets; all-by-all screen with Rosetta-predicted motifs): bound with specificity closely consistent with the design models
Binding to initial design target (13 unique dsDNA targets; yeast surface display, 1 μM dsDNA with avidity): bound weakly
Binding to alternate target sequence (13 unique dsDNA targets; yeast surface display, 1 μM dsDNA with avidity, alternate target H (DBP90), D (DBP48), C (DBP57)): strongly
DNA binding site specificity [1]: specificities consistent with the designed sidechain-base interactions
Fold repression of YFP by single DBP domains and tandem linked DBP domains [2]: not observed
